Laboratory results as given in US20180187173.

Assays:
[1] = test system: ZFN pair 33488/33501 (engineered); assay: cell_activity; details: K562 cells
[2] = test system: ZFN SBS 33488 (engineered); assay: cell_activity; details: pair with 33501, K562 cells; 37.5% in human CD34+ cells

Substance | activity ([1]; 0.005% in CD34+ cells) | activity ([1]; 0.000% in CD34+ cells) | further results
HBG2 paralog site | 0.013 % indels |  | 
HBG1 paralog site |  | 0.006 % indels | 
HBBP1 paralog site | 0.024 % indels |  | 
GGAGTCAGGTGCACCATGGTGTCTGTTT (double strand) [HBB left ZFN half-site] |  |  | activity [2]: 66.6 % indels
CACCATGGTGCATCTGACTCCTGAGGAGAAGACTGCTGTCA (double strand) [HBD paralog site] |  |  | activity ([1]; off-target paralog, 28.6% in CD34+ cells): 34 % indels
HBE1 paralog site |  | 0 % indels | 
